Laboratory results reported in the Human Domainome abundance scans (Beltran et al. 2025).

B1: POU domain, class 3, transcription factor 2, residues 262 to 338; numbered along this chain, P20265 (parent)
chain: EDTPTSDDLEQFAKQFKQRRIKLGFTQADVGLALGTLYGNVFSQTTICRFEALQLSFKNMCKLKPLLNKWLEEADSS

Variants of: B1
Assay: abundance fitness (aPCA) (normalised: wild type 0, dead -1); higher = more abundant; growth selection in yeast, the domain comes from the species named
Conditions: Homo sapiens

Abundance fitness, by site and new letter:
L23: N -0.254, Q -0.31, T -0.486, P -0.887, K -0.332, G -0.398, I -0.565, Y -0.139, S -0.345, D -0.733, M 0.048, A -0.188, R -0.239, E -0.578, C -0.313
A28: N -0.019, Y -0.117, F -0.452, E 0.035, R -0.058, K 0.067, D -0.182, T -0.198, P -0.811, Q -0.094, W -0.301, S -0.086, H -0.116, L -0.196, M -0.208, C -0.165, V -0.204
G31: Y -0.213, A 0.047, C -0.009, T -0.096, W -0.207, D -0.385, N -0.44, H -0.287, R -0.383, M -0.291, Q -0.188, V -0.113, P -0.648, L -0.59, F -0.39, E -0.224, S 0.025, K -0.383, I -0.399
L32: N 0.091, F -0.25, K 0.493, R -0.033, S -0.197, W -0.015, V -0.448
V30: M -0.655, W -0.793, T -0.501, S -1, H -0.529, Y -0.652, A -0.23, R -0.979, D -0.794, N -0.381, C -0.176, Q -1.11, F -0.552, P -0.569, G -0.776, L -0.306, I -0.235
F25: S -0.513, L -0.08, Y 0.041, K -0.072, Q -0.431, E -0.773, M -0.107, A -0.183, R -0.321, T -0.632, G -0.983, I -0.096, V -0.216, P -0.837, N -0.709, D -0.749, H -0.266, C -0.192, W -0.149
D29: L -0.63, M -0.299, N -0.228, V -0.607, A -0.205, F -0.649, W -0.588, K -0.26, H -0.249, Q -0.04, G -0.239, S -0.248, R -0.285, E -0.04, C -0.542, Y -0.251, T -0.428
Q27: R -0.201, A -0.071, Y 0.084, P -0.028, D -0.356, I -0.222, S -0.125, K -0.132, H 0.02, L -0.167, T 0.04, V -0.115, C 0.045, E -0.004, N -0.419
A33: D -0.284, C -0.19, E -0.172
K22: T -0.143, Y -0.3, V -0.298, S -0.131
G24: T -0.914, Y -0.86, K -0.295, A -0.598, C -0.575, W -0.784, F -1, H -0.466, I -0.94, S -0.646, D -0.572, M -0.821, P -0.714, R -0.408, V -0.814, L -0.789, E -0.641
T26: I -0.635, R -0.457, D -0.601, Q -0.586, K -0.399, S -0.014, E -0.536, A -0.417, V -0.797, W -0.898, P -0.553, N -0.392, Y -0.89, L -0.758, H -0.285, G -0.449, M -0.705
